Earlier results as cited in article PMC6451094.

Molecular target: TBP (Saccharomyces cerevisiae) (UniProt P13393)
Sequence of UniProt P13393 (P13393 2-240): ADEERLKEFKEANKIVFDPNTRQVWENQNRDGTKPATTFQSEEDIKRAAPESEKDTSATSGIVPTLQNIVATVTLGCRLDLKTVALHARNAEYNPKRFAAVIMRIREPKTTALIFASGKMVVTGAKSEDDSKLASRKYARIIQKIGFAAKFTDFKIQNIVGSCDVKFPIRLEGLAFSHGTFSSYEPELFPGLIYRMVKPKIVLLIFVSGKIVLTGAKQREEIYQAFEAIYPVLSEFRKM

Substance: Mot1 (from UniProt P32333)
- Kd: 1.5 nM
